This data set deals with hexa-histidine tagged ComP from A. baylyi ADP1 (ComPADP1).

B1: PglS oligosaccharyltransferase from A. baylyi ADP1 (PglSADP1) (protein)
chain: MNSIFKKIKNYTIVSGVFFLGSAFIIPNTSNLSSTLYKELIAVLGLLILLTVKSFDYKKILIPKNFYWFLFVIFIIFIQLIVGEIYFFQDFFFSISFLVILFLSFLLGFNERLNGDDLIVKKIAWIFIIVVQISFLIAINQKIEIVQNFFLFSSSYNGRSTANLGQPNQFSTLILITLFLLCYLREKNSLNNMVFNILSFCLIFANVMTQSRSAWISVILISLLYLLKFQKKIELRRVIFFNIVFWTLVYCVPLLFNLIFFQKNSYSTFDRLTMGSSRFEIWPQLLKAVFHKPFIGYGWGQTGVAQLETINKSSTKGEWFTYSHNLFLDLMLWNGFFIGLIISILILCFLIELYSSIKNKSDLFLFFCVVAFFVHCLLEYPFAYTYFLIPVGFLCGYISTQNIKNSISYFNLSKRKLTLFLGCCWLGYVAFWVEVLDISKKNEIYARQFLFSNHVKFYNIENYILDGFSKQLDFQYLDYCELKDKYQLLDFKKVAYRYPNASIVYKYYSISAEMKMDQKSANQIIRAYSVIKNQKIIKPKLKFCSIEY
For the protein B1, the “glycosylation of acceptor with K. pneumoniae K1 or K2 capsular polysaccharide, western blot” value is “PglS was able to glycosylate ComP with the K1 and K2 capsular polysaccharides from K. pneumonia”.

The values are drawn from US20240262870.
